Values quoted from earlier work, collected in paper PMC7962812.

Biological target: Bax (Homo sapiens) (UniProt Q07812)
Sequence (Q07812 whole entry): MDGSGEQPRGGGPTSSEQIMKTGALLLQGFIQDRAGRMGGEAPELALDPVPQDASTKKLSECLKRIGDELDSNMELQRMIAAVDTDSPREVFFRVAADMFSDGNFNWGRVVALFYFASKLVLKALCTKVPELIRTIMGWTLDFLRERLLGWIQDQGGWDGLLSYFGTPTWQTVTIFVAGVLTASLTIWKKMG

Bcl-2, sequence (P10415 whole entry): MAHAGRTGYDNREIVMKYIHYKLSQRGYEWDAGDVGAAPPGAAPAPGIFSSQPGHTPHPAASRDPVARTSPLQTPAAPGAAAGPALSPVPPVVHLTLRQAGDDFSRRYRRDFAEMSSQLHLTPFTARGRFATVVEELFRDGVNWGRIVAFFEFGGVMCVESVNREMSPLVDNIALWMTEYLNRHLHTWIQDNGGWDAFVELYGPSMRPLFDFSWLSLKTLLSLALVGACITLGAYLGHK

Bcl-2 (from UniProt P10415)
Kd: 35.8 nM
